Experimental data taken from patent US20220073599A1.

Key:
human VEGFA-165 (human) = human VEGFA-165 (human) (UniProt P15692); assay: KinExA, VEGFA-165; set-up for VEGFA-165 not described
[1] = biological target: human VEGFA-121-His (human) (UniProt P15692); assay: KinExA equilibrium titration in solution, VEGFA-121
human VEGFA-121-His (human), sequence (P15692 other isoform, or with tags, fused parts or gaps): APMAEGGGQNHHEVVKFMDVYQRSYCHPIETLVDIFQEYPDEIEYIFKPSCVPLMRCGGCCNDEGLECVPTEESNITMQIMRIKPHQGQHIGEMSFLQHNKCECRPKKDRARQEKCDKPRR

Aflibercept-analogue (Fc fusion), sequence (chain): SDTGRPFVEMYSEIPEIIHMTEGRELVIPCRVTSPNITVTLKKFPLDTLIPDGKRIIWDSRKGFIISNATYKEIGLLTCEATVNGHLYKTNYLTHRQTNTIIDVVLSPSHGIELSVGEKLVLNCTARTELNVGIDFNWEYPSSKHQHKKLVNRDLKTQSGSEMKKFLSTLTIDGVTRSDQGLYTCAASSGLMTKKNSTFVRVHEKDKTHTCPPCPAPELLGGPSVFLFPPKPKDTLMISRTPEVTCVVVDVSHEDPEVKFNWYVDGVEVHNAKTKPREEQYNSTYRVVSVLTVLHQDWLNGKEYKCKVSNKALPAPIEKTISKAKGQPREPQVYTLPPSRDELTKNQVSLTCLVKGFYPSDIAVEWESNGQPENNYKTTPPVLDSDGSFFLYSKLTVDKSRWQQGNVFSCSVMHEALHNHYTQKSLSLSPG
human VEGFA-165 (human), sequence (P15692 other isoform, or with tags, fused parts or gaps limits assumed): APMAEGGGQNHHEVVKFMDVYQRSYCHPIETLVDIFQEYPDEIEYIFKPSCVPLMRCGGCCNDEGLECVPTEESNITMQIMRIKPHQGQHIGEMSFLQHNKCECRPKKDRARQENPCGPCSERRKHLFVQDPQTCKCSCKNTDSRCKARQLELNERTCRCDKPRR

For Aflibercept-analogue (Fc fusion), which Kd (human VEGFA-165 (human)) is on record?
Its Kd is 0.1 pM.

And the Kd [1]?
Its Kd is 0.2 pM.
